# From the RNAGym collection of RNA variant scans (doi:10.1093/nar/gkz1192)
# B1: CPEB3 Ribozyme (parent)
# chain: UAACAGGGGGCCACAGCAGAAGCGUUCACGUCGCAGCCCCUGUCAGAUUCUGGUGAAUCUGCGAAUUCUGCUGUAUAUCUC
# Variants of: B1
# Test: self-cleavage, relative activity (ratio to wild type); higher = more cleavage; in vitro, sequencing
# Method in brief: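 Relative activity compares each variant's cleaved/total read fraction with that of the unmutated ribozyme. To get these fractions, barcoded CPEB3 ribozyme libraries from rounds of error-prone PCR were transcribed with T7 RNA polymerase for 5 hours at 37°C and then given 15 min of DNase I treatment before EDTA was added. The RNAs were reverse transcribed with template switching and sequenced on Illumina, and DNA sequencing linked barcodes to variants. A minimum of 5 reads applied, and three batches were averaged.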
row,Variant,self-cleavage
1,UAACAGGGGGCCACGGCAGAAGCGUUCACGUCGCAGCCCCUGUCAGAUUCUGGCGAAUCUGCGAAUUCUGCUGUAUAUCUC [A15G U54C],0.87
2,UAACAGGGGGCCACGGCAGAAGCGUUCACGUCGCAGCCCCUGUCAGAUUCUGGGGAAUCUGCGAAUUCUGCUGUAUAUCUC [A15G U54G],0.96
3,UAACAGGGGGCCACGGCAGAAGCGUUCACGUCGCAGCCCCUGUCAGAUUCUGGAGAAUCUGCGAAUUCUGCUGUAUAUCUC [A15G U54A],0.95
4,UAACAGGGGGCCACGGCAGAAGCGCUCACGUCGCAGCCCCUGUCAGAUUCUGGUGAAUCUGCGAAUUCUGCUGUAUAUCUC [A15G U25C],0.28
5,UAACAGGGGGCCACGGCAGAAGCGAUCACGUCGCAGCCCCUGUCAGAUUCUGGUGAAUCUGCGAAUUCUGCUGUAUAUCUC [A15G U25A],0.28
6,UAACAGGGGGCCACGGCAGAAGCGGUCACGUCGCAGCCCCUGUCAGAUUCUGGUGAAUCUGCGAAUUCUGCUGUAUAUCUC [A15G U25G],0.4
7,UAACAGGGGGCCACGGCAGAAGCGUUCACGUCGCAGCCCCUGUCAGAUUCUGCUGAAUCUGCGAAUUCUGCUGUAUAUCUC [A15G G53C],1.05
8,UAACAGGGGGCCACGGCAGAAGCGUUCACGUCGCAGCCCCUGUCAGAUUCUGAUGAAUCUGCGAAUUCUGCUGUAUAUCUC [A15G G53A],1.02
9,UAACAGGGGGCCACGGCAGAAGCGUUCACGUCGCAGCCCCUGUCAGAUUCUGUUGAAUCUGCGAAUUCUGCUGUAUAUCUC [A15G G53U],1.02
10,UAACAGGGGGCCACGGCAGAAGCGUUCACGUCGCAGCCCCUGUCAUAUUCUGGUGAAUCUGCGAAUUCUGCUGUAUAUCUC [A15G G46U],0.18
11,UAACAGGGGGCCACGGCAGAAGCGUUCACGUCGCAGCCCCUGUCAAAUUCUGGUGAAUCUGCGAAUUCUGCUGUAUAUCUC [A15G G46A],0.38
12,UAACAGGGGGCCACGGCAGAAGCGUUCACGUCGCAGCCCCUGUCAGAUUCUGGUGAAUCUGCGAAUUCUGCUGUAAAUCUC [A15G U76A],0.94
13,UAACAGGGGGCCACGGCAGAAGCGUUCACGUCGCAGCCCCUGUCAGAUUCUGGUGAAUCUGCGAAUUCUGCUGUACAUCUC [A15G U76C],0.89
14,UAACAGGGGGCCACGGCAGAAGCGUUCACGUCGCAGCCCCUGUCAGAUUCUGGUGAAUCUGCGAAUUCUGCUGGAUAUCUC [A15G U74G],1.14
15,UAACAGGGGGCCACGGCAGAAGCGUUCACGUCGCAGCCCCUGUCAGAUUCUGGUGAAUCUGCGAAUUCUGCUGAAUAUCUC [A15G U74A],1.14
16,UAACAGGGGGCCACGGCAGAAGCGUUCACGUCGCAGCCCCUGUCAGAUUCUGGUGAAUCUGCGAAUUCUGCUGCAUAUCUC [A15G U74C],1.21
17,UAACAGGGGGCCACGGCAGAAGCGUUCACGUCGCAGCCCCUGUCAGAUUCUGGUGAAUCUGCGAAUUCUCCUGUAUAUCUC [A15G G70C],0.11

row,Variant,self-cleavage
1,UAACAGGGGGCCACGGCAGAAGCGUUCACGUCGCAGCCCCUGUCAGAUUCUGGUGAAUCUGCGAAUUCUACUGUAUAUCUC [A15G G70A],0.29
2,UAACAGGGGGCCACGGCAGAAGCGUUCACGUCGCAGCCCCUGUCAGAUUCUGGUGAAUCUGCGAAUUCUUCUGUAUAUCUC [A15G G70U],0.18
3,UAACAGGGGGCCACGGCAGAAGCGUUCACGUCGCAGCCCCUGCCAGAUUCUGGUGAAUCUGCGAAUUCUGCUGUAUAUCUC [A15G U43C],0.47
4,UAACAGGGGGCCACGGCAGAAGCGUUCACGUCGCAGCCCCUGGCAGAUUCUGGUGAAUCUGCGAAUUCUGCUGUAUAUCUC [A15G U43G],0.28
5,UAACAGGGGGCCACGGCAGAAGCGUUCACGUCGCAGCCCCUGACAGAUUCUGGUGAAUCUGCGAAUUCUGCUGUAUAUCUC [A15G U43A],1.05
6,UAACAGGGGGCCACGGCAGAAGCGUUCACGUCGCAGCCCCAGUCAGAUUCUGGUGAAUCUGCGAAUUCUGCUGUAUAUCUC [A15G U41A],0.23
7,UAACAGGGGGCCACGGCAGAAGCGUUCACGUCGCAGCCCCCGUCAGAUUCUGGUGAAUCUGCGAAUUCUGCUGUAUAUCUC [A15G U41C],0.74
8,UAACAGGGGGCCACGGCAGAAGCGUUCACGUCGCAGCCCCGGUCAGAUUCUGGUGAAUCUGCGAAUUCUGCUGUAUAUCUC [A15G U41G],0.38
9,UAACAGGGGGCCACGGCAGAAGCGUUCACGUCGCAGCCCCUGUCAGAUUCUGGUGAAUCAGCGAAUUCUGCUGUAUAUCUC [A15G U60A],0.35
10,UAACAGGGGGCCACGGCAGAAGCGUUCACGUCGCAGCCCCUGUCAGAUUCUGGUGAAUCCGCGAAUUCUGCUGUAUAUCUC [A15G U60C],0.33
11,UAACAGGGGGCCACGGCAGAAGCGUUCACGUCGCAGCCCCUGUCAGAUUCUGGUGAAUCGGCGAAUUCUGCUGUAUAUCUC [A15G U60G],0.34
12,UAACAGGGGGCCACGGCAGAAGCGUUCACGUCGCAGCCCCUGUCAGAUUCUGGUGAAUCUGCGAAUUCUGCCGUAUAUCUC [A15G U72C],1.16
13,UAACAGGGGGCCACGGCAGAAGCGUUCACGUCGCAGCCCCUGUCAGAUUCUGGUGAAUCUGCGAAUUCUGCGGUAUAUCUC [A15G U72G],0.46
14,UAACAGGGGGCCACGGCAGAAGCGUUCACGUCGCAGCCCCUGUCAGAUUCUGGUGAAUCUGCGAAUUCUGCAGUAUAUCUC [A15G U72A],0.48
15,UAACAGGGGGCCACGGCAGAAGCGUUCACGUCGCAGCCCCUGUCAGAUGCUGGUGAAUCUGCGAAUUCUGCUGUAUAUCUC [A15G U49G],0.52
16,UAACAGGGGGCCACGGCAGAAGCGUUCACGUCGCAGCCCCUGUCAGAUACUGGUGAAUCUGCGAAUUCUGCUGUAUAUCUC [A15G U49A],0.61
17,UAACAGGGGGCCACGGCAGAAGCGUUCACGUCGCAGCCCCUGUCAGAUCCUGGUGAAUCUGCGAAUUCUGCUGUAUAUCUC [A15G U49C],0.28
